Laboratory results published in paper PMC7069958, “Multi-level and lineage-specific interactomes of the Hox transcription factor Ubx contribute to its functional specificity”.

Molecular target: mB*UbxN51A (UniProt P83949-2 1-380, N336A)
Experiment: EMSA; 20 mM HEPES pH 7.9, 1.4 mM MgCl2, 1 mM ZnSO4, 40 mM KCl, 0.1 mM EDTA, 5% glycerol, 0.2 ug poly(dI-dC), 0.1 ug BSA, 10 mM DTT, 0.1% NP40, 30 ul, 20 min; gel 6% acrylamide 0.5x TBE at 4 C
Conditions: protein: recombinant; tags: His, myc-BirA* (N-terminal fusion); label: 5'-Cy5; blunt

Sequence of mB*UbxN51A (P83949 other isoform, or with tags, fused parts or gaps N336A): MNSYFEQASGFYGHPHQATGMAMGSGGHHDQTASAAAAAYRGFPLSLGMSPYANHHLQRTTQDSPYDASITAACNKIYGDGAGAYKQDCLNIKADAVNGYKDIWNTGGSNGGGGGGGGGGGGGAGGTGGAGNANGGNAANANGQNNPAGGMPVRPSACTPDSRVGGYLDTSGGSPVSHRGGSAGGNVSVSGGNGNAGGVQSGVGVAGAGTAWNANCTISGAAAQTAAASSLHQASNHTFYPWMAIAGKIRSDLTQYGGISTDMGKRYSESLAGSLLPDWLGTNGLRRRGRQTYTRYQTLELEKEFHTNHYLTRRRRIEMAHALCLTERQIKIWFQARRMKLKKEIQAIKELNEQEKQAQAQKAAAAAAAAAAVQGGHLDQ

B1: Ubx consensus site probe (dsDNA)
DNA 1: TTCAGAGCGAATGATTTATGACCGGTCAAG
DNA 2: CTTGACCGGTCATAAATCATTCGCTCTGAA
binding result: no binding
